PMC12416549 (2024)

T1: TNFR1 (Homo sapiens, UniProt P19438)
T1 chain: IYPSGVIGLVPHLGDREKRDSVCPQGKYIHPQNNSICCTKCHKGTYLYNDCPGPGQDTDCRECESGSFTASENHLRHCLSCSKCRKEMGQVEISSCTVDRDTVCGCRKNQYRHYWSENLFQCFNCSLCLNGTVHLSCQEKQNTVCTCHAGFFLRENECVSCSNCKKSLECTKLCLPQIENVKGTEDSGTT


Target: T1, TNFR1
Assay: yeast display SC50

Binder	apparent Kd (screen)
T2A (designed binder) MALQELLREEALRRAEAEAFRYALELLAEKFPEQKEYLLDLAEEIESQIRSLSGVDVEDVRKFLDKEWAWVKELLAEHPAELAEVEAARAARLAELRAEVEAKVAA	0.79 nM
E43T (designed binder) MTLQELLREEALRRAEAEAFRYALELLAEKFPEQKEYLLDLATEIESQIRSLSGVDVEDVRKFLDKEWAWVKELLAEHPAELAEVEAARAARLAELRAEVEAKVAA	0.79 nM
R21I (designed binder) MTLQELLREEALRRAEAEAFIYALELLAEKFPEQKEYLLDLAEEIESQIRSLSGVDVEDVRKFLDKEWAWVKELLAEHPAELAEVEAARAARLAELRAEVEAKVAA	0.49 nM
A15H (designed binder) MTLQELLREEALRRHEAEAFRYALELLAEKFPEQKEYLLDLAEEIESQIRSLSGVDVEDVRKFLDKEWAWVKELLAEHPAELAEVEAARAARLAELRAEVEAKVAA	0.539 nM
K30I (designed binder) MTLQELLREEALRRAEAEAFRYALELLAEIFPEQKEYLLDLAEEIESQIRSLSGVDVEDVRKFLDKEWAWVKELLAEHPAELAEVEAARAARLAELRAEVEAKVAA	0.49 nM
K35S (designed binder) MTLQELLREEALRRAEAEAFRYALELLAEKFPEQSEYLLDLAEEIESQIRSLSGVDVEDVRKFLDKEWAWVKELLAEHPAELAEVEAARAARLAELRAEVEAKVAA	0.653 nM

The next lines start with the values.

apparent Kd (screen)	Binder
2.73 nM	E58F (designed binder) MTLQELLREEALRRAEAEAFRYALELLAEKFPEQKEYLLDLAEEIESQIRSLSGVDVFDVRKFLDKEWAWVKELLAEHPAELAEVEAARAARLAELRAEVEAKVAA
24.4 nM	R89P (designed binder) MTLQELLREEALRRAEAEAFRYALELLAEKFPEQKEYLLDLAEEIESQIRSLSGVDVEDVRKFLDKEWAWVKELLAEHPAELAEVEAAPAARLAELRAEVEAKVAA
0.869 nM	H78Q (designed binder) MTLQELLREEALRRAEAEAFRYALELLAEKFPEQKEYLLDLAEEIESQIRSLSGVDVEDVRKFLDKEWAWVKELLAEQPAELAEVEAARAARLAELRAEVEAKVAA
0.956 nM	A94L (designed binder) MTLQELLREEALRRAEAEAFRYALELLAEKFPEQKEYLLDLAEEIESQIRSLSGVDVEDVRKFLDKEWAWVKELLAEHPAELAEVEAARAARLLELRAEVEAKVAA
0.869 nM	A80H (designed binder) MTLQELLREEALRRAEAEAFRYALELLAEKFPEQKEYLLDLAEEIESQIRSLSGVDVEDVRKFLDKEWAWVKELLAEHPHELAEVEAARAARLAELRAEVEAKVAA
0.49 nM	E95V (designed binder) MTLQELLREEALRRAEAEAFRYALELLAEKFPEQKEYLLDLAEEIESQIRSLSGVDVEDVRKFLDKEWAWVKELLAEHPAELAEVEAARAARLAVLRAEVEAKVAA
1.27 nM	S47G (designed binder) MTLQELLREEALRRAEAEAFRYALELLAEKFPEQKEYLLDLAEEIEGQIRSLSGVDVEDVRKFLDKEWAWVKELLAEHPAELAEVEAARAARLAELRAEVEAKVAA
0.956 nM	A102P (designed binder) MTLQELLREEALRRAEAEAFRYALELLAEKFPEQKEYLLDLAEEIESQIRSLSGVDVEDVRKFLDKEWAWVKELLAEHPAELAEVEAARAARLAELRAEVEPKVAA
